According to patent US20230026259A1, “CA2 COMPOSITIONS AND METHODS FOR TUNABLE REGULATION” (Obsidian Therapeutics, Inc., priority 2019, published 2023):

Tested on: T cells
Test: CD40L expression of CA2 regulated CD40L constructs in T cells by FACS (dose response, time course)
Assay type: cell-based
Details: for CD40L positive / MFI: Ligand N/A; for CD40L MFI / Percentage CD40L positive cells: constitutive CD40L
From the text: CD40L constructs regulated by Carbonic anhydrase DDs were generated and cloned into lentiviral vectors. Purified T cells were thawed and cultured with aCD3 aCD28 Dynabeads (in the ratio of 3 beads to 1 T cell).
The constructs were transduced in T cells the next day. […]

B1: OT-001661: constitutive CD40L control (protein)
chain: MHMIETYNQTSPRSAATGLPISMKIFMYLLTVFLITQMIGSALFAVYLHRRLDKIEDERNLHEDFVFMKTIQRCNTGERSLSLLNCEEIKSQFEGFVKDIMLNKEETKKENSFEMQKGDQNPQIAAHVISEASSKTTSVLQWAEKGYYTMSNNLVTLENGKQLTVKRQGLYYIYAQVTFCSNREASSQAPFIASLCLKSPGRFERILLRAANTHSSAKPCGQQSIHLGGVFELQPGASVFVNVTDPSQVSHGTGFTSFGLLKL
Example 9, All Cells
  CD40L positive: 98%
  MFI: 20451
Example 9, CD4+
  CD40L positive: 98.7%
  MFI: 24489
Example 9, CD8+
  CD40L positive: 97.8%
  MFI: 14352
Time course 2 hours, CD4+
  CD40L MFI: 4042
  Percentage CD40L positive cells: 72.8%
Time course 2 hours, CD8+
  CD40L MFI: 2212
  Percentage CD40L positive cells: 56.9%
Time course 4 hours, CD4+
  CD40L MFI: 4651
  Percentage CD40L positive cells: 77%
Time course 4 hours, CD8+
  CD40L MFI: 2994
  Percentage CD40L positive cells: 63.2%
Time course 6 hours, CD4+
  CD40L MFI: 3156
  Percentage CD40L positive cells: 67.2%
Time course 6 hours, CD8+
  CD40L MFI: 1773
  Percentage CD40L positive cells: 48.5%
Time course 24 hours, CD4+
  CD40L MFI: 9491
  Percentage CD40L positive cells: 93.3%
Time course 24 hours, CD8+
  CD40L MFI: 3563
  Percentage CD40L positive cells: 71.2%
Time course 48 hours, CD4+
  CD40L MFI: 5639
  Percentage CD40L positive cells: 88.5%
Time course 48 hours, CD8+
  CD40L MFI: 2313
  Percentage CD40L positive cells: 71.1%
